Assay results as given in a protein production outcome set (Wang et al. 2014).

Experiment: label from the status in PepcDB records
In the case of “MQEEFMKKNSIIAGLFVFCITTAGIGYTVYNSVYSDRQKHRINETAKLDSAKAPNELKDGEYTASAEGYEGPITVKVVIKEGKIFSVEVLSHNETPEYYEMAKKILQTIVEKNTFNVDSISGATVTSDAIKVAVYKALVQAGAKTSDVAEGLEKENEELRDKEKAKLLAKQSSAVAGKVGFNRNNLKDGTFIGVGRGYNGLIKVSISIKNGVIYDARVISHSDDYPYFTWASSVLNKVISGSTNIDTVSGATVSSRGILNAVKDALRKASNGNNSLDINSPDETEQNIPRQNRREIEQIKKYFKGLKDGVYFGKSNGYYTNSIEVKVTVKDGKIAKIELTKNDDDESYFDNKKAGILGERIISNQSTNIDTISGATTSSKGFINAVVNALEKAVDSNGSDADKYIYSPKTIIANVGETIGLQKIRDALEKLPEDVQINIKNNADTSSEGKTKIVVELIFKDNSKKIVEIPVLVNSKVDGSYKFLSAEEVKNLDKNVNYPDGVYYGDSYGFVSNKPIPVKVTIKNNKIENVELVKEELNRLKGVTSPGNVDDGGIFQEKFYTIIDRIKNMQKFESLIYKFEVLRDATSKVMEEARGKEQTVEVYRAALDKVIGKHNFGKWGLSIDESHLKGERNIHDRIFSLLKVYVKEELGYDGSDYDAVSGATFTATGTATSIKNALLKAKNFDFYDMRVDDSNFKTSYKEGDKLDLKDLKVTIYKKNNQKITVSYSDFGKYGLKVVDEYNKELKDGLVLNKENLGYNVTDGLRLKVVHEESKSFKFLNTILISKSTTKNFEISGIKIKAKDGSEWYDTKGYNTTDFIQNLTVSKEVAEKLNNKEIEFKIIAKDKKSSEEIEIPLRQAQNKTLIADFVSGEYTLDVIEKYKGVLFNNTFRIKTKVEGKIPKAFLYKETPETLIISKGTEITESKIRSVLKNLPDKTDISVLRGVDVNKVNETVLQKLLIKLKFDDGSEKEIEIDVIVKEKVISMADKYVYKPKDLITIKGKEVELSHLKNHLDDLPEGTKIEIIEKANVSEVNETGTLMKVSLEFTDKSTKDISINVVVKDTAPNKAEEFKILYPEIKNEIVNVVVKDPKYGNMKNFAETVKWGAFSDFAINRDLKLKSRSADISRIEVLKEPDRSKLGDQKGKIRLSFNDGSKLELEISVKIVPYPVYKIFRLTSNKTQYRLEDKFNLNDLKVTLFISNKLENESDWDTTGTPVLNIPYSDFYLFGIKVVDLDSKKEIENNSIISTLIKNKKLSVGAYCENLIQKNNYESGKKLVEIFNIKITNIDEWKESKKNIVEIKDEKNSKKADDSNKTGKVMASKKEIKNVDNLDNTSEKNKTIESENTTKDKVQRKDSDSGGKLSDDSSEKQNLKTNEKED”, the protein production is reported as “failed”. With “MQEGQNRKTSSLSILAIAGVEPYQEKPGEEYMNEAQLAHFRRILEAWRNQLRDEVDRTVTHMQDEAANFPDPVDRAAQEEEFSLELRNRDRERKLIKKIEKTLKKVEDEDFGYCESCGVEIGIRRLEARPTADLCIDCKTLAEIREKQMAG” the protein production was “not failed”. With “MQEIISFIVETASAWGYLGIIILMTLESCFIPFPSEVVMIPAGYLAHKGELDITLCILSGTLGSVLGALINYYICFFWGKNFVLKWGKYFGINEVKFAKFEEFFNKHGEFSTFTCRLLPGIRQYISMPAGLVKMKLVNFILFTALGSAIWVAILVFLGYYIGQNEELIKTYLTQILIIIIVFVILASLIYISKSKSLLKRLKFYLLRFVWRF” the protein production was “failed”. With “MQEIMYLAPELVLVATGLVILLTGVFLSPQSKNILGYLATLGTLAAIFLTVKSFGLLTMEGFSVQYTIFSETLSIDALSQFFKLVFLAVALIVSIASIKYTENSDHTEEFYTLVLFATFGMMIVASANDLILLFCAFELASLATFALAGFEKQNARSLEGAMKYFVIGSVSAALMLFGLSFVYGATGTTSIPLIAQNPGLLTGNPIGIVAIVLLTAGFGFKMALVPFHMWAPDTYQGSPSVVSALLAAGSKKMGFVAAFRVFIIALAALQPDWQFMFTLLAVVTMTFGNVVAVAQTSVKRMLAYSSLAQAGYIAMAFAVMTPVALAGGIMYTLAHAFMKAGAFIAAAAVVWMITSEKTGNLDIPDHLDSFRGLGKRMPLAALCMTVFVFALAGIPPTAGFMAKFVLFSSTIQAGMTWLAVIAILNSALSLFYYARLVKYMYFMPPEGKTEKVSIPFPYAAALLVAVAGVLVMGLWPEPFVELAMKAAMVLVPF” the protein production was “failed”. For “MQENKKIDENIDDFLKIVVDLNHIQIEVRDEVQAILLLSSLPSRYDGLVETMKYSNSREKLRLNDVMVAARDKEREMSQNNRLIAEGHYARRRPVGKNNNQGNKGKNRSWSKSADGKRVCWICGKEKHFNEQCYKWLERNKPK”, the protein production was “failed”. For “MQESWVEGVEDIRMLGSSLRNDSAAAGRACARTRAGPPAESRKKKVQAERRRREGVANAPTRALRFLRARRAWSPRLAAPGPLTLVAEGEEGRNRVPAAKHPCLRTMSPEPAPPEPQGVRSSLEEPSAEPLGQGSAAFLAGDYEVAAELFRSLLAGLAQPERGLCLQLGEALARAGRLPEAIGAFRGAALLGPLQPGELSELASGLARALGLREKRPPVAARPGGCASGTSGPVAPRDLLGCPRCGRLLYKPVTLSSGLTVCKRCVEQVPVRAQARRVNVVLSGLLERCFPAECRLRRLACQARGLQRQQQPEAALLRCQQALDMAPDDSSLLLLRAELYLTMKNYEQALQDADTVCQREPLLTKGHHIKAQILSGLGRNKEVLKEFIYCLALNPECNSAKKETQKVICEVFFSASENEQQNSAPSTQTGPKALCDGQMSPQNPLEEAGGHANADSPKTPSEKPDVPENTNSSVLYFILGLHCEEDKKALEGVIPAAPSGTLKRQLPSDAEDKELDVNTPEKIPKKDADSSPQRNANSLEEEPEFTIDATDFECALCMRLLFEPVTTPCGHTFCLKCLERCLDHAPHCPLCKDKLSELLATRNFNVTVLTEELIFRYLPDELSDRKRVYDEEMSELSHLTRDVPIFVCAMAFPTVPCPLHVFEPRYRLMIRRCMETGTKRFGMCLSAENAGISEYGCMLEIKDVRTFPDGSSVVDAVGISRFRVLSHRHRDGYNTADIEYLEDEKVEGAEFEELTALHESVYQQSVSWFASLQDHMKKQILSHFGSMPDREPEPQSNSSGPAWSWWILAVLPLERKAQLAILGMGSLKERLLAIRRILVIITRKLNSRQEMANNAQRDN”, the protein production was “failed”. In the case of “MQETMLDLRTVYECNRCLGCKTLHPQVGIINLENPSLEEDAVKFEFYAVLLIEDCPGGCCCCGRKYYDYSNATMVFLTPGEIFRMSKENTLPDKGYLLAFHPDLLFRTSLKNHIKNYTFFHYRKEEALHLSRRETEKVTCCLSNIEDELHHPIDTHSSIILSRHIELLLDYCTRYYERQFITRENKNKALLENMERLFVEYIASGRLQGGKLPTSGYMAGELDLSVAYFDDLLKFETGKTLEEYLQLKRLDIARHMLLQDGHTPAAVARKLGYPNVQCFSVLFKKITGVAPSDYRLSQN”, the protein production is reported as “not failed”. With “MQFEVLKRFFPKESLKNCKGALWVHTASIGEFNTFLPILKELKREHRILLTYFSPRAREYLKTKSDFYDCLHPLPLDNPFSVKRFEELSKPKALIVVEREFWPSLIIFTKVPKILVNAYAKGSLIEKILSKKFDLIIMRTQEDVEKFKTFGAKRVFSCGNLKFICQKGKGIKLKGEFIVAGSIHTGEVEIILKAFKEIKKTYSSLKLILVPRHIENAKIFEKKARDFGFKTSFFENLEGDVILVDRFGILKELYPVGKIAIVGGTFVNIGGHNLLEPTCWGIPVIYGPYTHKVNDLKEFLEKEGAGFEVKNETELVTKLTELLSVKKEIKVEEKSREIKGCYLEKLREFLRGL” the protein production was “failed”. For “MQFQIGDMVARKSYQMDVLFRIIGIEQTSKGNSIAILHGDEVRLIADSDFSDLVAVKKDEQMMRKKKDESRMNESLELLRQDYKLLREKQEYYATSQYQHQEHYFHMPGKVLHLDGDEAYLKKCLNVYKKIGVPVYGIHCHEKKMSASIEVLLDKYRPDILVITGHDAYSKQKGGIDDLNAYRHSKHFVETVQTARKKIPHLDQLVIFAGACQSHFESLIRAGANFASSPSRVNIHALDPVYIVAKISFTPFMERINVWEVLRNTLTREKGLGGIETRGVLRIGMPYKSN”, the protein production was “not failed”. With “MQFRSIIRIVGLLLALFSVTMLAPALVALLYRDGAGVPFVTTFFVLLFCGAMCWFPNRRHKHELKSRDGFLIVVLFWTVLGSAGSLPFLIADNPNISVTDAFFESFSALTTTGATVIVGLDELPKAILFYRQFLQWFGGMGIIVLAVAILPVLGIGGMQLYRAEIPGPVKDTKMTPRIAETAKALWYIYLSLTIACAVAFWLAGMTPFDAISHSFSTIAIGGFSTHDASMGYFDSYAINLITVVFLLISACNFTLHFAAFASGGVHPKYYWKDPEFRAFIFIQVLLFLVCFLLLLKHHSYTSPYDAFDQALFQTVSISTTAGFTTTGFADWPLFLPVLLLFSSFIGGCAGSTGGGMKVIRILLLTLQGARELKRLVHPRAVYTIKVGGSALPQRVVDAVWGFFSAYALVFVVCMLGLIATGMDELSAFSAVAATLNNLGPGLGEVALHFGDVNDKAKWVLIVSMLFGRLEIFTLLILLTPTFWRS” the protein production was “not failed”.
